# Measured values: patent US20220096608
# Substitutions are numbered along the chain they refer to. In names and notes the source's numbering stands.
# T1: α2-antiplasmin, P08697
# T1 chain: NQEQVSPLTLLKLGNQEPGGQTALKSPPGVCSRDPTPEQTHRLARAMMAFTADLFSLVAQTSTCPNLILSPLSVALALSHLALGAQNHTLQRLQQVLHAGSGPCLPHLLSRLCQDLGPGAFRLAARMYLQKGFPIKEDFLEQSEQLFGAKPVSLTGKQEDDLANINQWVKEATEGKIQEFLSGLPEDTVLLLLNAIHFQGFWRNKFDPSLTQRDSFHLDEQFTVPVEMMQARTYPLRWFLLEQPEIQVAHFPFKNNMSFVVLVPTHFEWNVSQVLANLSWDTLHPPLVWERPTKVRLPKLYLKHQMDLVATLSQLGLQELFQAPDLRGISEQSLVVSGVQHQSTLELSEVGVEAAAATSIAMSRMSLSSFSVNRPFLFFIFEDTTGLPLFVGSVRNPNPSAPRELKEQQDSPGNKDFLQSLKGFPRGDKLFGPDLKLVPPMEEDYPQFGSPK
# B1: Mono-PEGylated Micro-plasmin variant (40 kDa PEG) V82C Catalytic Domain (SEQ ID NO. 4) (protein)
# chain: APSFDCGKPQVEPKKCPGRVVGGCVAHPHSWPWQVSLRTRFGMHFCGGTLISPEWVLTAAHCLEKSPRPSSYKVILGAHQECNLEPHVQEIEVSRLFLEPTRKDIALLKLSSPAVITDKVIPACLPSPNYVVADRTECFITGWGETQGTFGAGLLKEAQLPVIENKVCNRYEFLNGRVQSTELCAGHLAGGTDSCQGDSGGPLVCFEKDKYILQGVTSWGLGCARPNKPGVYVRVSRFVTWIEGVMRNN
# B2: Mono-PEGylated Micro-plasmin variant (40 kDa PEG) H87C Catalytic Domain (SEQ ID NO. 9) (protein)
# chain: B1 chain with C82V, H87C
# B3: Wild-type Micro-plasmin (SEQ ID NO. 2) (protein)
# chain: B1 chain with C82V
# B4: Mono-PEGylated Micro-plasmin variant (20 kDa PEG) H87C Catalytic Domain (SEQ ID NO. 9) (protein)
# chain: B1 chain with C82V, H87C
# B5: Bi-PEGylated Micro-plasmin variant (20 kDa-20 kDa PEG) V82C-H87C Catalytic Domain (SEQ ID NO. 12) (protein)
# chain: B1 chain with H87C
# B6: Mono-PEGylated Micro-plasmin variant (20 kDa PEG) V82C Catalytic Domain (SEQ ID NO. 4) (protein)
# chain: B1 chain
# Biological target: T1, α2-antiplasmin, P08697
row,Protein,In vitro Half-life (of inactivation by α2-antiplasmin)
1,B1,>7 min
2,B2,>7 min
3,B3,>5 min
4,B4,6 to 7 min
5,B5,>10 min
6,B6,6 to 7 min
